Key:
Paxillin = Paxillin (UniProt P49023); conditions: cited from earlier work
[1] = molecular target: human Kindlin-3 F0 (1-105), GST tag removed (human, UniProt Q86UX7 1-105); assay: NMR titration
Sequence of human Kindlin-3 F0 (1-105), GST tag removed (Q86UX7 1-105): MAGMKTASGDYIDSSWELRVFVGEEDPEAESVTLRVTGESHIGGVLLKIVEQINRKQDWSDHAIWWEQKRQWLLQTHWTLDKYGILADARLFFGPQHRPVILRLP

Sequence of Kindlin-2 (Q96AC1 whole entry): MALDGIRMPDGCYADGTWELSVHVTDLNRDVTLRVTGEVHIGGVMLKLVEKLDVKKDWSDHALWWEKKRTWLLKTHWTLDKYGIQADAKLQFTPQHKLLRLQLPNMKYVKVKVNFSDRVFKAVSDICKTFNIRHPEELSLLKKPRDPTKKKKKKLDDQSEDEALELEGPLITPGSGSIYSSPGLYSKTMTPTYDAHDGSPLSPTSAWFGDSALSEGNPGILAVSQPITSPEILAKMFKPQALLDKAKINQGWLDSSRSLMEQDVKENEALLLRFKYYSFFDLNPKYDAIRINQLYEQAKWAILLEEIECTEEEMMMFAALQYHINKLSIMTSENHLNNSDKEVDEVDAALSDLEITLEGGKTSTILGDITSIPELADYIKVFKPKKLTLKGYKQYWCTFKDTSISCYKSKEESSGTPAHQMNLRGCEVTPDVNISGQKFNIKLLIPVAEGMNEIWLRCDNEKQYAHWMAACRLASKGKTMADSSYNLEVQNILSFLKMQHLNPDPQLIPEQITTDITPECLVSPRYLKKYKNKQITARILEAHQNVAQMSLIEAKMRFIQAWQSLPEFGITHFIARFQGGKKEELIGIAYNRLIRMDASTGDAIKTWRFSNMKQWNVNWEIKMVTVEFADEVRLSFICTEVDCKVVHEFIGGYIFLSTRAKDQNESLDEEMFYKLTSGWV

Kd [1] | Molecule | Kd (Paxillin)
– | Kindlin-2 (from UniProt Q96AC1) | 201 µM
192 µM | human LPXN LIM4 (324-386), 15N-labeled, GST tag removed (domain or fragment, UniProt O60711 324-386, looked up, also: 15N-labeled) RRGTLCHGCGQPITGRCISAMGYKFHPEHFVCAFCLTQLSKGIFREQNDKTYCQPCFNKLFPL | –
117 µM | human PXN (paxillin-γ) LIM4 (541-605), 15N-labeled, GST tag removed (domain or fragment, UniProt P49023-3 541-605, looked up, also: 15N-labeled) YHERRGSLCSGCQKPITGRCITAMAKKFHPEHFVCAFCLKQLNKGTFKEQNDKPYCQNCFLKLFC | –
